Experimental data: US20180282386A1 (REGENTS OF THE UNIVERSITY OF MINNESOTA, published 2018)

Legend:
CD133 on Caco-2 cells = biological target: T1, CD133 on Caco-2 cells (human, UniProt O43490 20-865); experiment: flow cytometry on Caco-2 cells, competition with FITC-labeled 1615133 TriKE
T1 construct: whole, on cells; also called prominin-1
T1 sequence (looked up): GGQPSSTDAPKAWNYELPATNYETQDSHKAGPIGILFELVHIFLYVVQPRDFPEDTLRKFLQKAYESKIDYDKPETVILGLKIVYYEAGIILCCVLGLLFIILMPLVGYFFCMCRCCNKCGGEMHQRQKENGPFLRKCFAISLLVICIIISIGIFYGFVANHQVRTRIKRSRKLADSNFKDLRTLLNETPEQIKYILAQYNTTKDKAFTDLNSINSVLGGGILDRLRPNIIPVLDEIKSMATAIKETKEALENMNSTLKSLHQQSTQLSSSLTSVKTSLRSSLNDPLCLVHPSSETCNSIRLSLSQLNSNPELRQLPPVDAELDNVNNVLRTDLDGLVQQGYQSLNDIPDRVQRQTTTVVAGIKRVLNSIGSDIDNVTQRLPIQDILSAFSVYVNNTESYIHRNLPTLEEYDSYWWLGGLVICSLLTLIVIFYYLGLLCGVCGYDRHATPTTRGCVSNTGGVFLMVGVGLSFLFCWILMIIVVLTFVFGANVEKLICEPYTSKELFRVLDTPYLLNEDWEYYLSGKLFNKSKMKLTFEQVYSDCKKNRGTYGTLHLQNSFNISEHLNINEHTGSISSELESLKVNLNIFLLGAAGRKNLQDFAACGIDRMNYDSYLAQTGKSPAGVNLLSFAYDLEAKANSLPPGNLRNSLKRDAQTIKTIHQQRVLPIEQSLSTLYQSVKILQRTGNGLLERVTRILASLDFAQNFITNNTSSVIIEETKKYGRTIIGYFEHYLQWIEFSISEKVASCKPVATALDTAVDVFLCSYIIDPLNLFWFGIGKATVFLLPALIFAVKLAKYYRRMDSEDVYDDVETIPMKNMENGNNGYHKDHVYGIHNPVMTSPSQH

[1] = biological target: EpCAM on HT-29 cells (human) (UniProt P16422); experiment: flow cytometry, direct binding to CD33- EpCAM+ HT-29 cells (specificity control), 4 µg drug
Chain of EpCAM on HT-29 cells (human) (P16422 24-314): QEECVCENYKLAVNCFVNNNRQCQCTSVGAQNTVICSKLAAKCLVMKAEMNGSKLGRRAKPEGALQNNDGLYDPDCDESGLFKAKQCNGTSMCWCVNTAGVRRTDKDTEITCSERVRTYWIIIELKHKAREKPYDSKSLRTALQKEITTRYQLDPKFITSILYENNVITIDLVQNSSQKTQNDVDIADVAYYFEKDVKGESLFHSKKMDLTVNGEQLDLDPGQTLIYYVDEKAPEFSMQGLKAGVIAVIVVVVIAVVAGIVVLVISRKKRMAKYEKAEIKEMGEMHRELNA

B1: anti-CD133 scFv (scFv)
scFv: MDIVLSQSPAIMSASPGEKVTISCSASSSVSYMYWYQQKPGSSPKPWIYRTSNLASGVPARFSGSGSGTSYSLTISSMEAEDAATYYCQQYHSYPPTFGAGTKLELKSSGGGGSGGGGGGSSRSSLEVKLVESGPELKKPGETVKISCKASGYTFTDYSMHWVNQAPGKGLKWMGWINTETGEPSYADDFKGRFAFSLETSASTAYLQINNLKNEDTATYFCATDYGDYFDYWGQGTTLTVSS
notes: also called monomeric CD133 scFv; anti-CD133 scFv from clone 7
CD133 on Caco-2 cells
  binding result: binds

B2: 1633 bispecific killer engager (BiKE) (bispecific antibody)
chain: MEVQLVESGGGVVRPGGSLRLSCAASGFTFDDYGMSWVRQAPGKGLEWVSGINWNGGSTGYADSVKGRFTISRDNAKNSLYLQMNSLRAEDTAVYYCARGRSLLFDYWGQGTLVTVSRGGGGSGGGGSGGGGSSELTQDPAVSVALGQTVRITCQGDSLRSYYASWYQQKPGQAPVLVIYGKNNRPSGIPDRFSGSSSGNTASLTITGAQAEDEADYYCNSRDSSGNHVVFGGGTKLTVLPSGQAGAAASESLFVSNHAYQVQLVQSGAEVKKPGSSVKVSCKASGYTFTDYNMHWVRQAPGQGLEWIGYIYPYNGGTGYNQKFKSKATITADESTNTAYMELSSLRSEDTAVYYCARGRPAMDYWGQGTLVTVSSGGGGSGGGGSGGGGSDIQMTQSPSSLSASVGDRVTITCRASESVDNYGISFMNWFQQKPGKAPKLLIYAASNQGSGVPSRFSGSGSGTDFTLTISSLQPDDFATYYCQQSKEVPWTFGQGTKVEIK
modifications: FITC label (site not stated)
[1]
  % Positive Cells: 1%
